Results as given in the RNAGym collection of RNA variant scans (doi:10.1093/molbev/msab373).

B1: Azoarcus group I ribozyme (parent)
chain: GUGCCUUGCGCCGGGAAACCACGCAAGGGAUGGUGUCAAAUUCGGCGAAACCUAAGCGCCCGCCCGGGCGUAUGGCAACGCCGAGCCAAGCUUCGGCGCCUGCGCCGAUGAAGGUGUAGAGACUAGACGGCACCCACCUAAGGCAAACGCUAUGGUGAAGGCAUAGUCCAGGGAGUGGCGAAAGUCACACAAACCGG

Variants of: B1
Assay: reverse-splicing fitness (ratio to wild type); higher = more active; in vitro selection; Mg2+ level not given
How it was run: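 An in vitro group I ribozyme library with randomized positions was T7-transcribed and gel-purified. In triplicate, 10 pmol RNA in EPPS pH 7.5 was reacted with 50 pmoles of a 30-nt RNA substrate for 1 h at 37 °C across several added MgCl2 levels (1–48 mM), then stopped with EDTA. Products were reverse transcribed from a substrate-complementary primer, PCR-amplified and sequenced (HiSeq 4000). Fitness is a variant's read proportion after selection over that before, normalised to wild type.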

| Variant | reverse-splicing fitness |
| --- | --- |
| A111G A120G A145U C150A C169G | 0.0305 |
| A111G A120G A145U C150A C169A | 0.018 |
| A111G A120G A145G C169U U176G | 0.00896 |
| A111G A120G A145G C169U U176C | 0.0954 |
| A111G A120G A145G C169U U176A | 0.0849 |
| A111G A120G A145C C150G U176G | 0.00289 |
| A111G A120G A145C C150G U176C | 0.0228 |
| A111G A120G A145C C150G U176A | 0.014 |
| A111G A120U A145C C150U C169A | 0.0024 |
| A111G A120G A145G C150A | 0.0452 |
| A111G A120G A145G C150G | 0.0366 |
| A111G A120G A145G C150U | 0.244 |
| A111G A120G A145C C150G C169A U176A | 0.00837 |
| A111G A120G A145C C150G C169A U176G | 0.00453 |
| A111G A120G A145C C150G C169A U176C | 0.00969 |
| A111G A120U A145C C150A C169U U176G | 0.00197 |
| A111G A120U A145C C150A C169U U176C | 0.00268 |
| A111G A120U A145C C150A C169U U176A | 0.00311 |
| A111G A120G C150U C169A | 0.0914 |
| A111G A120G C150U C169G | 0.177 |
| A111G A120G C150U C169U | 0.142 |

| Variant | reverse-splicing fitness |
| --- | --- |
| A111G A120G A145C C169U | 0.219 |
| A111G A120G A145C C169A | 0.158 |
| A111G A120G A145C C169G | 0.3 |
| A111G A120U A145C C150A U176C | 0.00924 |
| A111G A120U A145C C150A U176G | 0.00839 |
| A111G A120U A145C C150A U176A | 0.0179 |
| A111G A120G A145C U176A | 0.0723 |
| A111G A120G A145C U176G | 0.00892 |
| A111G A120G A145C U176C | 0.104 |
| A111G A120G A145G C150U C169U U176G | 0.00628 |
| A111G A120G A145G C150U C169U U176A | 0.0625 |
| A111G A120G A145G C150U C169U U176C | 0.0831 |
| A111G A120U A145C C150U C169A U176G | 0.00196 |
| A111G A120U A145C C150U C169A U176C | 0.00228 |
| A111G A120U A145C C150U C169A U176A | 0.00259 |
| A111G A120G A145G C150G C169G U176G | 0.0054 |
| A111G A120G A145G C150G C169G U176A | 0.00945 |
| A111G A120G A145G C150G C169G U176C | 0.0117 |
| A111G A120G A145G C150G U176C | 0.0227 |
| A111G A120G A145G C150G U176A | 0.0132 |
| A111G A120G A145G C150G U176G | 0.00619 |

| Variant | reverse-splicing fitness |
| --- | --- |
| A111G A120G A145C C169G U176C | 0.0984 |
| A111G A120G A145C C169G U176A | 0.079 |
| A111G A120G A145C C169G U176G | 0.00658 |
| A111G A120G A145U C150G C169G | 0.0297 |
| A111G A120G A145U C150G C169U | 0.0301 |
| A111G A120G A145U C150G C169A | 0.0193 |
| A111G A120G A145C C150G C169G | 0.0368 |
| A111G A120G A145C C150G C169U | 0.0356 |
| A111G A120G A145C C150G C169A | 0.0226 |
| A111G A120G A145G C169G U176A | 0.0887 |
| A111G A120G A145G C169G U176G | 0.00622 |
| A111G A120G A145G C169G U176C | 0.134 |
| A111G A120C C150G C169U | 0.0262 |
| A111G A120G A145G C150A C169U U176A | 0.0309 |
| A111G A120G A145G C150A C169U U176C | 0.0305 |
| A111G A120G A145G C150A C169U U176G | 0.00605 |
| A111G A120G A145G C150G C169A U176C | 0.0143 |
| A111G A120G A145G C150G C169A U176A | 0.0122 |
| A111G A120G A145G C150G C169A U176G | 0.00709 |
| A111G A120G A145C C150U C169A U176G | 0.00411 |
| A111G A120G A145C C150U C169A U176A | 0.0171 |

| Variant | reverse-splicing fitness |
| --- | --- |
| A111G A120G A145C C150U C169A U176C | 0.0168 |
| A111G A120G C150A C169U U176G | 0.00819 |
| A111G A120G C150A C169U U176A | 0.0272 |
| A111G A120G C150A C169U U176C | 0.0286 |
| A111G A120G C150A C169A U176A | 0.0205 |
| A111G A120G C150A C169A U176C | 0.0244 |
| A111G A120G C150A C169A U176G | 0.00486 |
| A111G A120G C150A C169G U176C | 0.0343 |
| A111G A120G C150A C169G U176G | 0.00566 |
| A111G A120G C150A C169G U176A | 0.0259 |
| A111G A120U A145C | 0.701 |
| A111G A120G C169A | 0.165 |
| A111G A120G C169G | 0.321 |
| A111G A120G C169U | 0.236 |
| A111G A120G A145U C150U C169G | 0.206 |
| A111G A120G A145U C150U C169A | 0.114 |
| A111G A120G A145U C150U C169U | 0.157 |
| A111G A120C C150U | 0.528 |
| A111G A120G A145U C150U C169G U176C | 0.0783 |
| A111G A120G A145U C150U C169G U176G | 0.00556 |
| A111G A120G A145U C150U C169G U176A | 0.0574 |
